Biological target: GST-MST3 (human, UniProt Q9Y6E0-2 1-431)
Experiment: pull-down

B1: His-SUMO-tagged PGAM5 (25-289) (domain or fragment, human, UniProt Q96HS1 25-289, looked up)
chain: AVAVGKPRAGGDAEPRPAEPPAWAGGARPGPGVWDPNWDRREPLSLINVRKRNVESGEEELASKLDHYKAKATRHIFLIRHSQYHVDGSLEKDRTLTPLGREQAELTGLRLASLGLKFNKIVHSSMTRAIETTDIISRHLPGVCKVSTDLLREGAPIEPDPPVSHWKPEAVQYYEDGARIEAAFRNYIHRADARQEEDSYEIFICHANVIRYIVCRALQFPPEGWLRLSLNNGSITHLVIRPNGRVALRTLGDTGFMPPDKITRS
binding result: binds

Source: article PMC11802746 (Nature Communications, 2025)
